# Assay results: patent US11857697B2, “Compositions and methods for obtaining 3-dimensional lung-like epithelium and related uses thereof” (THE REGENTS OF THE UNIVERSITY OF MICHIGAN, priority 2017, dated 2024)
# B1: Recombinant Human Fibroblast Growth Factor 7 (protein, UniProt P21781 32-194, looked up)
# Fibroblast growth factor 7: CNDMTPEQMATNVNCSSPERHTRSYDYMEGGDIRVRRLFCRTQWYLRIDKRGKVKGTQEMKNNYNIMEIRTVAVGIVAIKGVESEFYLAMNKEGKLYAKKECNEDCNFKELILENHYNTYASAKWTHNGGEMFVALNQKGIPVRGKKTKKEQKTAHFLPMAIT
# notes: Recombinant human growth factor from R&D systems, used at 10 ng/mL unless otherwise noted
# Tests used:
# [1] = system: E13.5 mouse distal epithelial lung buds; experiment: Isolated E13.5 mouse distal lung bud culture in Matrigel droplet: growth/expansion; type: cell-based
# Protocol: Isolated mouse buds were cultured in 4-6 μl droplets of matrigel, covered with media, and kept at 37 degrees Celsius with 5% Carbon Dioxide. Isolated human fetal lung buds were cultured in 25-50 μl droplets of matrigel, covered with media, and kept at 37 degrees Celsius with 5% Carbon Dioxide.
# Mouse buds were dissected from E13.5 embryos. For experiments using Sox9CreER; Rosa^Tomato/Tomato mice, 50 ug/g of tamoxifen was dissolved in corn oil and given by oral gavage on E12.5, 24 hours prior to dissection. Briefly, in sterile environment, whole lungs were placed in 100% dispase (Corning Cat#354235) on ice for 30 minutes. Lungs were then transferred using a 25 uL wiretrol tool (Drummond Scientific Cat#S5-000-2050) to 100% FBS (Corning Cat#35-010-CV) on ice for 15 minutes, and then transferred to a solution of Dulbecco's Modified Eagle Medium: Nutrient Mixture F12 (DMEM/F12, ThermoFisher SKU#12634-010) with 10% FBS and 1× Pennicillin-Streptomycin (ThermoFisher Cat#15140122) on ice. To dissect buds, a single lung or lung lobe was transferred by wiretrol within a droplet of media to a 100 mm sterile petri dish. Under a dissecting microscope, the mesenchyme was carefully removed and epithelial bud tips were torn away from the bronchial tree using tungsten needles (Point Technologies, Inc.). Care was taken to remove the trachea and any connective tissue from dissected lungs. Isolated bud tips were picked up using a p20 pipette and added to an eppendorf tube with cold Matrigel (Corning Ref#354248) on ice. The buds were picked up in a p20 pipette with 4-6 uL of Matrigel and plated on a 24-well tissue culture well (ThermoFisher Cat#142475). The plate was moved to a tissue culture incubator and incubated for 5 minutes at 37 degrees Celsius and 5% CO2 to allow the Matrigel droplet to solidify. 500 uL of media was then added to the dish in a laminar flow hood. Media was changed every 2-3 days.
# All mouse bud, human fetal bud, and hPSC-derived human lung organoids were grown in low-serum basal media (basal media) with added growth factors. Basal media consisted of Dulbecco's Modified Eagle Medium: Nutrient Mixture F12 (DMEM/F12, ThermoFisher SKU#12634-010) supplemented with 1× N2 supplement (ThermoFisher Catalog#17502048) and […] B27 supplement (ThermoFisher Catalog#17504044), along with 2 mM Glutamax (ThermoFisher Catalog#35050061), 1× Pennicillin-Streptomycin (ThermoFisher Cat#15140122) and 0.05% Bovine Serum Albumin (BSA; Sigma product# A9647). BSA was weighed and dissolved in DMEM F/12 media before being passed through a SteriFlip 0.22 uM filter (Millipore Item# EW-29969-24) and being added to basal media. Media was stored at 4 degrees Celsius for up to 1 month. On the day of use, basal media was aliquoted and 50 ug/mL Ascorbic acid and 0.4 uM Monothioglycerol was added. […]
# [2] = system: hPSC-derived human lung organoids (HLOs); experiment: Marker expression (QRT-PCR, immunofluorescence) in HLOs; type: cell-based; conditions: 42 days 3F then 26 days FGF7 only
# Protocol: Based on results in the mouse showing that FGF7 was permissive for differentiation (FIG. 1), experiments were conducted that hypothesized that removing CHIR-99021 and RA from HLOs grown in 3F media would reduce the number of progenitor cells and increase differentiation of mature cell types within HLO cultures. Foregut spheroids were collected and grown in 3F media for 42 days and were cultured for an additional 26 days in 3F media (control) or media containing FGF7 only (FIG. 10A). […] At the end of the experiment, cultures were collected and assessed for gene and protein expression.
# RNA was extracted using the MagMAX-96 Total RNA Isolation System (Life Technologies). RNA quality and concentration was determined on a Nanodrop 2000 spectrophotometer (Thermo Scientific). 100 ng of RNA was used to generate a cDNA library using the SuperScript VILO cDNA master mix kit (Invitrogen) according to manufacturer's instructions. qRT-PCR analysis was conducted using Quantitect SYBR Green Master Mix (Qiagen) on a Step One Plus Real-Time PCR system (Life Technologies). Expression was calculated as a change relative to GAPDH expression using arbitrary units, which were calculated by the following equation: [2^(GAPDH Ct−Gene Ct)]×10,000. A Ct value of 40 or greater was considered not detectable. A list of primer sequences used can be found in Table 1.
# Mouse bud, human bud, and HLO tissue was fixed in 4% Paraformaldehyde (Sigma) for 2 hours and rinsed in PBS overnight. Tissue was dehydrated in an alcohol series, with 30 minutes each in 25%, 50%, 75% Methanol:PBS/0.05% Tween-20, followed by 100% Methanol, and then 100% Ethanol. Tissue was processed into paraffin using an automated tissue processor (Leica ASP300). Paraffin blocks were sectioned 5-7 uM thick, and immunohistochemical staining was performed as previously described (Spence et al., 2009). A list of antibodies, antibody information and concentrations used can be found in Table 2. PAS Alcian blue staining was performed using the Newcomer supply Alcian Blue/PAS Stain kit (Newcomer Supply, Inc.) according to manufacturer's instructions.
molecule,measurement,setting,value
B1,Bud growth,"[1]; FGF7 1 ng/mL, 3 and 5 days in vitro",very modest growth
same,Bud growth,"[1]; FGF7, all other conditions above 1 ng/mL, 5 days in vitro",robust growth
same,"Growth, expansion and survival of isolated buds","[1]; individual growth factor in basal media, FGF7 10 ng/mL, up to two weeks","promoted growth, expansion a survival of isolated buds for up to two weeks"
same,AECI marker HOPX gene expression,[2]; versus 3F,increased gene expression
same,AECII marker SFTPC protein and mRNA expression,[2]; versus 3F,increase in both protein and mRNA expression
same,FOXJ1 mRNA expression (QRT-PCR),[2]; versus 3F,increased significantly
same,MUC5AC gene expression (QRT-PCR),[2]; versus 3F,significant increase
same,P63 mRNA expression (QRT-PCR),[2]; versus 3F,significant increase in mRNA expression
same,SOX2 transcript (QRT-PCR),[2]; versus 3F,significant increase
same,SOX9 transcript (QRT-PCR),[2]; versus 3F,no change
same,Increase of SCGB1A1 mRNA level over 3F controls,[2]; not statistically significant,~100 fold
